Here are results for two molecules from paper PMC10973363, “Insights into the modulation of bacterial NADase activity by phage proteins” (Nature Communications, 2024).

One may read the stoichiometry N as a count of units in the complex or per binding partner.

B1: defense-associated sirtuin 2 (DSR2), full-length wild type (enzyme, Bacillus subtilis 29R, UniProt P0DXN8 1-1005, looked up)
chain: MVKVDLESKRYGEKLKEVFLMLDNNVVECIKEITESSRNGKLVFFVGAGVSTLSDYPQWWRLVDKYHEELYGSPKKGNYSSDEYLRIPQIFYNVKGEMAFDGILKDFFQVDKPTNPIHDKILAMNPAHVITTNYDNLIDTACWKRGKYFSVISAEEDVANATSSRYLLKVHGDFRKGFKGENVVLKEDDYLNYDQNYPLISNLMKTIIATHTIVFIGYGLGDYNINMLLNWVRKLQKDSFHKPFFIRTDPSPIENETLIYYENKGLRIIDAASLIDSNEYDYLERYSAVMDLLIESQENKFITKDDEVIDYIYGKISPLFALQYIRKIDLKHVFEYDYHFEVNGTVVRHKNKGFGYMERFFELKESCDERSKLSKKQYERFNALFNFFEKNGVICMAKDAGTLNTSIEINSLAYHGKYDVMKKFIEEQSVSIEDDYKKAFFLACLGRWEESYDLYSNIILNSIDESNGCVYYLSQINRYRIYQSITQAVTQFNGLGLLTFGRHYKPFTDEFLARIEREMTNFNIDDLFNGMPFEFQKKYKILEFLSDNQFLYDDTVKLFELTNKVRSEMSEGSYSFGMSSDIVVLLRLYDNLRFLYENCLWSVSFHEFHQYIRNSMSLLIEKAEYERTRDIDELGFSFFGKKSGFFMEYYDFVNISRHFKIDDIKNLERSCSIDKIRFGEQEKIEEYLVGIAEEITKQFSANGMNVVFYTQFISEAKAALYFAKYVKLSEEGLGKIVKALLFYFPERDLDIGKRYVWLERLTKCNELPKSIISIIDDFLVLQAEKHIDQNYSEVSSNGLYSRDYGALIKHFEKNFISKRLSEITLCLTQDKQKQIDFLFKLLPLLSTNAKSHLLSFKSVENINDLMNGIRIGLIDEFTPEHEELIIEYLETRKVNYIVEKEKGIQTFSSNDYMSTFGIWYFLEEINNSKMEEFIGMDDQYDFFVDPENFDYKKFIPSWLKNYNDKLLGKIAGNKHMKHHVIEVLKERVKNSNDKRYLEILMNYFI
notes: DSR2 from Bacillus subtilis 29R, WP_029317421; Cloned into the 2CT-10 vector (Addgene plasmid #55209) with His-MBP tag and TEV site; DSR2-TTP was cloned into a pET-derived vector with an N-terminal His tag; also called WT DSR2; full-length DSR2; source: E. coli Rosetta (DE3), purified (Ni-NTA, TEV cleavage, anion exchange, gel filtration); not shown: His, N-terminal, cleaved; MBP, N-terminal, …
B2: tail tube protein (TTP) from phage SPR, His-tagged (natural protein)
chain: MKTVIQDTADVYFKRKSDGKLVFTAEAQTASFSQAISEEKLRGGIGNKPLYILKSEKEINLTVKNAFFDLEWLAMTQGETIQEETKVKVFDREHGLIVDDTNKVTLKGKPVSDVTFYNKKGLTYKIAVSTDGTYTIPTAFAAAKDKLTAVYQIEKVGRRLAIKASKFSERYEVEYRTIAYNPDTEEVYSDIYIQFPNVSPSGEFEMSLENGNALAPEIKFEALADTDTDEMAVVIEASRDENTAAPVEDTTGSTQSSDLGGTTE
notes: tail tube protein of phage SPR, WP_010328117; C-terminal portion aa 240-264 not built in the cryo-EM model of the tube; Cloned into a pET-derived vector with an N-terminal His tag; Alone it polymerises into a tube of hexameric rings (cryo-EM); also called His-tagged TTP; tagged TTP; source: E. coli Rosetta (DE3), purified (Ni-NTA, anion exchange, gel filtration); not shown: His, N-terminal, kept

The target in data set [1] is T1, DSR anti-defense 1 (DSAD1), His-tagged (UniProt Q796A8 1-120).
T1 construct: phage-encoded DSAD1, WP_004399562; aa 1-9 not built in the cryo-EM model; Cloned into a pET-derived vector with an N-terminal His tag; also called anti-DSR2 protein; His-tagged DSAD1; source: E. coli Rosetta (DE3), purified (Ni-NTA, anion exchange, gel filtration); not shown: His, N-terminal, kept
T1 sequence: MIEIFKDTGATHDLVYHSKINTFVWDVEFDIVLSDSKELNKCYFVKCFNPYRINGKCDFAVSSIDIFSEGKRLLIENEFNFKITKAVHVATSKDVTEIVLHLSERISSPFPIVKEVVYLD
Description: cryo-EM structure; protein complexes (co-expressed and co-purified) or TTP tube at 0.5 mg/ml on Quantifoil Au grids, Titan Krios 300 kV. The conditions noted are these: both partners purified.

The target in data set [2] is B2. The data set is described as above. The conditions noted are these: both partners purified.
Data set [3] deals with the molecule itself. Description: native gel or EMSA; purified DSR2 at 1 mg/mL in gel-filtration buffer (25 mM Tris-HCl pH 7.5, 150 mM NaCl, 2 mM DTT) on a 5% native gel, 120 V, 40 min, 4 °C, Coomassie staining. (In EMSA bound probe runs differently from free probe, usually more slowly.)
Data set [4] deals with the molecule itself. Put plainly: cryo-EM structure; protein complexes (co-expressed and co-purified) or TTP tube at 0.5 mg/ml on Quantifoil Au grids, Titan Krios 300 kV.
Data set [5] deals with B1. Put plainly: pull-down; N-terminal His-tagged TTP or DSAD1 on Ni-NTA agarose beads, excess untagged DSR2 variants added, 1 h at 4 °C, 25 mM Tris-HCl pH 7.5, 300 mM NaCl, washes with 10 mM imidazole, SDS-PAGE with Coomassie staining. The conditions noted are these: both partners purified.
Data set [6] deals with T2, DSR2 CTD-only protein (ΔSIR2, aa 304-1005) (Bacillus subtilis 29R, UniProt P0DXN8 304-1005).
T2 construct: DSR2 from Bacillus subtilis 29R, WP_029317421, C-terminal domain aa 304-1005; source: E. coli Rosetta (DE3), purified (Ni-NTA, TEV cleavage, anion exchange, gel filtration); not shown: His, N-terminal, cleaved; MBP, N-terminal, cleaved
T2 sequence (looked up): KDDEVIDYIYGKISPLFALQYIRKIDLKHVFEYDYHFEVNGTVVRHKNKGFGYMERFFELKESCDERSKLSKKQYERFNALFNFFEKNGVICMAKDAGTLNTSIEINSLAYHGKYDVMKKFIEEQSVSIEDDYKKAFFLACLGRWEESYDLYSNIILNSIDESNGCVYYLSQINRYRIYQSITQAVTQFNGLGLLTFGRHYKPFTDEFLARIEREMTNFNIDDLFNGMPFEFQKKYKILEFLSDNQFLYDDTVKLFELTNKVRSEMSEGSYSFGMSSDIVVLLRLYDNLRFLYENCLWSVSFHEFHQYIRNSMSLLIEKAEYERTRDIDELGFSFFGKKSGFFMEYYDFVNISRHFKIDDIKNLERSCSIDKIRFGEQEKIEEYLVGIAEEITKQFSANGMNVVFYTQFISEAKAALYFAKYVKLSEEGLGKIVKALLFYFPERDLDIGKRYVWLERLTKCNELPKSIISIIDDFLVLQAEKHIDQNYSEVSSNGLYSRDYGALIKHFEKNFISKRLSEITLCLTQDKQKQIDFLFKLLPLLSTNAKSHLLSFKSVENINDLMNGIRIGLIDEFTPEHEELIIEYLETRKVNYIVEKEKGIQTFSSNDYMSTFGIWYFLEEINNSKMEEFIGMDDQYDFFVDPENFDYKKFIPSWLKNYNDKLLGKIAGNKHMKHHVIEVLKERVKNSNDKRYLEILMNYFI
The description is as above. The conditions noted are these: both partners purified.

For the molecule B1, the “stoichiometry N” value in data set [1] was 1 DSAD1 per DSR2 dimer; in data set [2] it was 4 TTP per DSR2 tetramer; in data set [3], 4.
For B2, the “stoichiometry N” value in data set [4] is 6. In addition, the binding result in data set [5] and in data set [6] was “binds” throughout.
